Reference: publication PMC12442453

Molecular target: T1, human EPOR, endogenous on TF-1 cells (human (endogenous in TF-1)) (UniProt P19235)
T1 sequence: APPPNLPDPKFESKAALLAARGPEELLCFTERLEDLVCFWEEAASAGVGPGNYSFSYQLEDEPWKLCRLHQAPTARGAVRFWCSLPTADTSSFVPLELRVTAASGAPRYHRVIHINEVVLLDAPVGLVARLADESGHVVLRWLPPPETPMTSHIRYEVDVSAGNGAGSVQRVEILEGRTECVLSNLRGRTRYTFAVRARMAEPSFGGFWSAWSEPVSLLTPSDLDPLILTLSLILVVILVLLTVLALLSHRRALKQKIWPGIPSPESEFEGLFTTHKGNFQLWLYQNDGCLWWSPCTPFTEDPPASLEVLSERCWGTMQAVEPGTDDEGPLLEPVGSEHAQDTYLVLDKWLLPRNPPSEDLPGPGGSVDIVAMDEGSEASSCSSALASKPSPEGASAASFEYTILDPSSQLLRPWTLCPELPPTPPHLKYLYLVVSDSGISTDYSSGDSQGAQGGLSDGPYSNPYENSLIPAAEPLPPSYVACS

B1: Db-Fc 1.3 (Fc fusion)
VH: EVQLVESGGGLVQPGGSLRLSCAASGFNLRSYYMHWVRQAPGKGLEWVASISPHYGYTYYADSVKGRFTISADTSKNTAYLQMNSLRAEDTAVYYCARHGYSAMDYWGQGTLVTVSS
VL: DIQMTQSPSSLSASVGDRVTITCRASQSVSSAVAWYQQKPGKAPKLLIYSASSLYSGVPSRFSGSRSGTDFTLTISSLQPEDFATYYCQQSSDSLFTFGQGTKVEIK
Which results are given for B1?
UT-7/Epo cell proliferation, EC50; Tb-Fc2 fraction of variant 1.3 (putative tetramer): 2 nM; UT-7/Epo cell proliferation, maximum response; Tb-Fc2 fraction of variant 1.3 (putative tetramer): 2.2e+06 RLU
